This test deals with T1, ligand binding domain of the nuclear receptor Fushi Tarazu factor-1 (LBD FTZ-F1) (Drosophila, UniProt P33244 786-1027, 15N-labelled in the experiment with the peptide; unlabelled in the experiment with GCEC).
T1 construct: cDNA synthesised (Gene Art); Cloned into pET-15b; residues left by the thrombin site are not described; Purified protein runs as a 26.5 kDa globular protein; also called FTZ-F1 LBD; LDB FTZ-F1 (786-1027); source: E. coli BL21(DE3), soluble fraction, purified (Ni-NTA, thrombin, second IMAC, SEC on Superdex75)
T1 sequence (looked up): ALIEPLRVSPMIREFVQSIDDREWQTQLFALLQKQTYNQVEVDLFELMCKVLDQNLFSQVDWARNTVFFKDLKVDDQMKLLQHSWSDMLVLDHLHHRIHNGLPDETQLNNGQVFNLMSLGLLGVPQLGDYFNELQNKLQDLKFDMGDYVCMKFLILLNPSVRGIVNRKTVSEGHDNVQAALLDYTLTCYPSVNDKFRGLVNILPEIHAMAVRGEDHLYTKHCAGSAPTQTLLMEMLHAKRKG
Description: NMR titration; 1H-15N HSQC chemical shift perturbation, 15N-labelled LBD FTZ-F1 after incubation with the … peptide (concentration set by its solubility limit), buffer F with 10% D2O, 22 °C, 800 MHz. Conditions: both partners purified.

B1: 9-residue GCEC peptide (GCE^PEP) (peptide)
peptide: LRLIQNLQK
notes: stretch of the C-terminal region of GCE, D. melanogaster, with the novel NR-box (LIXXL motif; LIQNL); source: synthetic peptide (PSL GmbH, Heidelberg)
In the case of B1, the binding result is “binds”.

Values taken from PMC7643343, “The intrinsically disordered region of GCE protein adopts a more fixed structure by interacting with the LBD of the nuclear receptor FTZ-F1” (Cell Communication and Signaling : CCS, 2020).
